In publication PMC6337304, “Site-directed Mutagenesis of a β-Glycoside Hydrolase from Lentinula edodes” (Molecules, 2018):

Tested on: [H][C@]12[C@H](OC(=O)c3ccccc3)[C@]3(O)C[C@H](OC(=O)[C@H](O)[C@@H](NC(=O)c4ccccc4)c4ccccc4)C(C)=C([C@@H](O)C(=O)[C@]1(C)[C@@H](O[C@@H]1OC[C@@H](O)[C@H](O)[C@H]1O)C[C@@]1([H])OC[C@@]21OC(C)=O)C3(C)C
Assay: HPLC of 10-deacetyltaxol formation, Michaelis-Menten nonlinear fit
Assay type: biochemical, Lentinula edodes
Conditions: XDT 0.039–5.0 mmol/L; other conditions as in earlier report
Excerpt: HPLC of 10-deacetyltaxol formation, Michaelis-Menten nonlinear fit on LXYL-P1−1

| Substance | Km | Vmax | kcat | kcat/Km |
| --- | --- | --- | --- | --- |
| LXYL-P1−1 (Lentinula edodes) | 0.50 (±0.01) mM | 3.42 µM/min | 2.05 ± 0.02 s⁻¹ | 4100 M⁻¹ s⁻¹ |
| LXYL-P1−1 (Lentinula edodes; I368E) | 0.42 (±0.01) mM | 4.02 µM/min | 2.41 ± 0.08 s⁻¹ | 5740 M⁻¹ s⁻¹ |
| LXYL-P1−1 (Lentinula edodes; I368T) | 0.35 (±0.10) mM | 2.6 µM/min | 1.56 ± 0.34 s⁻¹ | 4460 M⁻¹ s⁻¹ |
| LXYL-P1−1 (Lentinula edodes; I368E/V91S) | 0.20 (±0.01) mM | 3.43 µM/min | 2.06 ± 0.01 s⁻¹ |  |
